Laboratory results: US20210002624

Target: Factor X, P00742
Sequence (P00742 whole entry, looked up): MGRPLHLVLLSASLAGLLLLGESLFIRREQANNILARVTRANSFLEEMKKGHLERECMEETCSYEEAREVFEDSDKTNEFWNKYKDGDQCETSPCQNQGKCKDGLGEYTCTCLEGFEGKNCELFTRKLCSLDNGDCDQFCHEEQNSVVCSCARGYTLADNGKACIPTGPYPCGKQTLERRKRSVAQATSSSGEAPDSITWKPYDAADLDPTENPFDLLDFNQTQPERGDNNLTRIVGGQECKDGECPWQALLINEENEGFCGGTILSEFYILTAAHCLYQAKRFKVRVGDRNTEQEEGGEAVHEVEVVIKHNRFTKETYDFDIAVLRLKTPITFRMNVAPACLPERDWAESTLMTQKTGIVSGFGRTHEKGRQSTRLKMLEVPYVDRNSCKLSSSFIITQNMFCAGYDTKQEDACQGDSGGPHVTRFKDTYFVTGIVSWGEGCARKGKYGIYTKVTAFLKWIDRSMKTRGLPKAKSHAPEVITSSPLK

B1: Desialylated wild-type Factor VII (dWT VIIa) (protein)
chain 1: ANAFLEELRPGSLERECKEEQCSFEEAREIFKDAERTKLFWISYSDGDQCASSPCQNGGSCKDQLQSYICFCLPAFEGRNCETHKDDQLICVNENGGCEQYCSDHTGTKRSCRCHEGYSLLADGVSCTPTVEYPCGKIPILEKRNASKPQGR
chain 2: IVGGKVCPKGECPWQVLLLVNGAQLCGGTLINTIWVVSAAHCFDKIKNWRNLIAVLGEHDLSEHDGDEQSRRVAQVIIPSTYVPGTTNHDIALLRLHQPVVLTDHVVPLCLPERTFSERTLAFVRFSLVSGWGQLLDRGATALELMVLNVPRLMTQDCLQQSRKVGDSPNITEYMFCAGYSDGSKDSCKGDSGGPHATHYRGTWYLTGIVSWGQGCATVGHFGVYTRVSQYIEWLQKLMRSEPRPGVLLRAPFP
**Q.** With B1 as the protein, how does the “activation of Factor X (Michaelis Menten kinetics; Factor X titrated in the presence of sTF-Factor VII complexes, 0.5 nM Factor VII, 125 nM sTF), relative to wild-type Factor VII (F7)” value read?
**A.** approximately 2-fold
